T1: recombinant human haptoglobin β subunit (human, UniProt P00738 162-406)
T1 sequence (looked up): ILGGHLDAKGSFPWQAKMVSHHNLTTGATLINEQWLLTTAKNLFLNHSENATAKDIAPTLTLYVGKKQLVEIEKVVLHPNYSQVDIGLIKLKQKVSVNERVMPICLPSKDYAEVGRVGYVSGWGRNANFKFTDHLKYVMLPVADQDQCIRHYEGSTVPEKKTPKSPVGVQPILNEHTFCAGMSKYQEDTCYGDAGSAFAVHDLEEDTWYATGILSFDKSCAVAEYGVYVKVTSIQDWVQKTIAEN

T2: native human haptoglobin β subunit (human, UniProt P00738 162-406)
T2 sequence (looked up): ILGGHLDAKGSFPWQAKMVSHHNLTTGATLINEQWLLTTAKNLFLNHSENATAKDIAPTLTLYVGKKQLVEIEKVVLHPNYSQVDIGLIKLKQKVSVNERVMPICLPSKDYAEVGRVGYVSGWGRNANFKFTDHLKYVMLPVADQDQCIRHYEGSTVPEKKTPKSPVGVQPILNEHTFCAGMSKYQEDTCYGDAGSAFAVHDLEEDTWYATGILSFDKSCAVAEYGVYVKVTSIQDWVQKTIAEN


How the values were obtained:
Assay in all cases: SPR
[1] = target: T1, recombinant human haptoglobin β subunit
[2] = target: T2, native human haptoglobin β subunit
[3] = target: recombinant human CD163 protein (human, UniProt Q86VB7-1 42-1050)
Sequence of recombinant human CD163 protein (Q86VB7 42-1050): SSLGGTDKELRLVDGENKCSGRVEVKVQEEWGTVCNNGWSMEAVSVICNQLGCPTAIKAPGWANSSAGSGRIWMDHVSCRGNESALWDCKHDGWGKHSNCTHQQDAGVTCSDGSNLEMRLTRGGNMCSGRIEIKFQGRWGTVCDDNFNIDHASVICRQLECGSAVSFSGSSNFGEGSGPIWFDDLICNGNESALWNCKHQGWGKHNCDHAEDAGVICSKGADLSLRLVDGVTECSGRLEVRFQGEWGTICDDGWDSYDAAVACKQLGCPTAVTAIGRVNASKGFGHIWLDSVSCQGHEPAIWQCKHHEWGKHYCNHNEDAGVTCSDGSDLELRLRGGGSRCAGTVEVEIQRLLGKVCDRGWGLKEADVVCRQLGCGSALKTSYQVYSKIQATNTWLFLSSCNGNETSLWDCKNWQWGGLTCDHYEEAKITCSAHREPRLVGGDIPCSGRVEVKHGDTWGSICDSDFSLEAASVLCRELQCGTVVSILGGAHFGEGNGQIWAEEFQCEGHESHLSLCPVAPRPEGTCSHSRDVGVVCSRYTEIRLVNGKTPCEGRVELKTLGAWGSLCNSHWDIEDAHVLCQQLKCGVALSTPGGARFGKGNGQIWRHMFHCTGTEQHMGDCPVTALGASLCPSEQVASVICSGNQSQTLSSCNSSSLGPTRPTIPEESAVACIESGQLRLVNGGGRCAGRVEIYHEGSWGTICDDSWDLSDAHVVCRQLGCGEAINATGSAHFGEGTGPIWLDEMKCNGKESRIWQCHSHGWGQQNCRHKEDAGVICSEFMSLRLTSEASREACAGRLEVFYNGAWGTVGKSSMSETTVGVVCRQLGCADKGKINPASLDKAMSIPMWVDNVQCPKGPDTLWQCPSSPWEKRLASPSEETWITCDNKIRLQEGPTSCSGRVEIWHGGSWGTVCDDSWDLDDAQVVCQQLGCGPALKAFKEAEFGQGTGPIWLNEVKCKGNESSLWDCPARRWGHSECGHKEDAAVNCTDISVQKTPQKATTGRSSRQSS

Row | Kd [1] [nM] | Kd [2] [nM] | Kd [3] [nM] | Binder
1 | 29 | 30 |  | recombinant disulfide HMGB1 (natural protein, UniProt P09429 1-215, looked up, disulfide redox form (cysteines not named)) MGKGDPKKPRGKMSSYAFFVQTCREEHKKKHPDASVNFSEFSKKCSERWKTMSAKEKGKFEDMAKADKARYEREMKTYIPPKGETKKKFKDPNAPKRPPSAFFLFCSEYRPKIKGEHPGLSIGDVAKKLGEMWNNTAADDKQPYEKKAAKLKEKYEKDIAAYRAKGKPDAAKKGVVKAEKSKKKKEEEEDEEDEEDEEEEEDEEDEDEEEDDDDE
2 |  |  | 70 | HMGB1-haptoglobin β complexes (1:1 molar ratio) (complex) chain 1: MGKGDPKKPRGKMSSYAFFVQTCREEHKKKHPDASVNFSEFSKKCSERWKTMSAKEKGKFEDMAKADKARYEREMKTYIPPKGETKKKFKDPNAPKRPPSAFFLFCSEYRPKIKGEHPGLSIGDVAKKLGEMWNNTAADDKQPYEKKAAKLKEKYEKDIAAYRAKGKPDAAKKGVVKAEKSKKKKEEEEDEEDEEDEEEEEDEEDEDEEEDDDDE chain 2: ILGGHLDAKGSFPWQAKMVSHHNLTTGATLINEQWLLTTAKNLFLNHSENATAKDIAPTLTLYVGKKQLVEIEKVVLHPNYSQVDIGLIKLKQKVSVNERVMPICLPSKDYAEVGRVGYVSGWGRNANFKFTDHLKYVMLPVADQDQCIRHYEGSTVPEKKTPKSPVGVQPILNEHTFCAGMSKYQEDTCYGDAGSAFAVHDLEEDTWYATGILSFDKSCAVAEYGVYVKVTSIQDWVQKTIAEN

From publication PMC5477782 (Journal of internal medicine, 2017)
